These results are taken from patent US20240262870.

For this data set, the target named is hexa-histidine tagged ComP from A. baylyi ADP1 (ComPADP1).

B1: PglS oligosaccharyltransferase from A. baylyi ADP1 (PglSADP1) (protein)
chain: MNSIFKKIKNYTIVSGVFFLGSAFIIPNTSNLSSTLYKELIAVLGLLILLTVKSFDYKKILIPKNFYWFLFVIFIIFIQLIVGEIYFFQDFFFSISFLVILFLSFLLGFNERLNGDDLIVKKIAWIFIIVVQISFLIAINQKIEIVQNFFLFSSSYNGRSTANLGQPNQFSTLILITLFLLCYLREKNSLNNMVFNILSFCLIFANVMTQSRSAWISVILISLLYLLKFQKKIELRRVIFFNIVFWTLVYCVPLLFNLIFFQKNSYSTFDRLTMGSSRFEIWPQLLKAVFHKPFIGYGWGQTGVAQLETINKSSTKGEWFTYSHNLFLDLMLWNGFFIGLIISILILCFLIELYSSIKNKSDLFLFFCVVAFFVHCLLEYPFAYTYFLIPVGFLCGYISTQNIKNSISYFNLSKRKLTLFLGCCWLGYVAFWVEVLDISKKNEIYARQFLFSNHVKFYNIENYILDGFSKQLDFQYLDYCELKDKYQLLDFKKVAYRYPNASIVYKYYSISAEMKMDQKSANQIIRAYSVIKNQKIIKPKLKFCSIEY
For the protein B1, the “glycosylation of acceptor with K. pneumoniae K1 or K2 capsular polysaccharide, western blot” value is “PglS was able to glycosylate ComP with the K1 and K2 capsular polysaccharides from K. pneumonia”.
